Measured values reported in patent US20050226863A1 (MIT, published 2005).
Substitutions are numbered along the chain they refer to. In names and notes the source's numbering stands.

What was measured:
[1] = biological target: T1, peptide consisting of the first 20 amino acids of htt, MATLEKLMKAFESLKSFQQQ-biotin (C-terminal biotin); experiment: titration of yeast surface displayed intrabody with biotinylated peptide, flow cytometry
T1 construct: Synthesized to contain three glutamines; also called huntingtin peptide; huntingtin peptide antigen
T1 peptide: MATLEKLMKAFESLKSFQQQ
Method: (§1) Both intrabodies are equally capable of partially blocking aggregation when overexpressed at high levels. *** p<0.001. FIG. 24D is a schematic homology model that includes mutations obtained during engineering; model contains residues present before mutagenesis. Mutations observed after mutagenesis and sorting were F371, Y51D, K67R, and A75T.
(§2) Yeast surface display. […] Yeast surface display labeling experiments to measure expression and binding were conducted as previously described (Boder, E. T. et al., Methods Enzymol 328: 430-444, 2000). A peptide consisting of the first 20 amino acids of htt was used as the antigen ([…]-biotin (SEQ ID NO:9), synthesized by the MIT biopolymers lab). The antigen was synthesized to contain three glutamines because the beginning of the polyglutamine region would be an ideal target for interfering with the misfolding of htt exon I. Affinity maturation of VL,C22V,C89A relied upon protocols previously described (Colby, D. W. et al., Methods Enzymol 388: 348-358, 2004). Briefly, the VL,C22V,C89A gene was used as the template for the creation of a library of point mutants through error-prone PCR using nucleotide analogues. […]

[2] = biological target: T1, peptide consisting of the first 20 …; experiment: yeast surface display, flow cytometry with huntingtin peptide (method not restated in the sentence)
Method: as §1, §2

[3] = biological target: T1, peptide consisting of the first 20 …; experiment: yeast surface display titration
Method: as §1, §2

[4] = biological target: T1, peptide consisting of the first 20 …; experiment: yeast surface display, flow cytometry with huntingtin peptide
Method: as §1, §2

[5] = biological target: T1, peptide consisting of the first 20 …; experiment: yeast surface display, flow cytometry
Method: as §1, §2

[6] = biological target: T1, peptide consisting of the first 20 …; experiment: titration of yeast surface displayed intrabody with biotinylated peptide, flow cytometry; Example 4 text's estimate from FIG. 24B
Description: A peptide consisting of the first 20 amino acids of htt was used as the antigen ([…]-biotin (SEQ ID NO:9), synthesized by the MIT biopolymers lab). The antigen was synthesized to contain three glutamines because the beginning of the polyglutamine region would be an ideal target for interfering with the misfolding of htt exon I. Affinity maturation of VL,C22V,C89A relied upon protocols previously described (Colby, D. W. et al., Methods Enzymol 388: 348-358, 2004). Briefly, the VL,C22V,C89A gene was used as the template for the creation of a library of point mutants through error-prone PCR using nucleotide analogues. The resulting PCR products were amplified and transformed into yeast along with digested pCTCON (a yeast surface display vector) to create a library through homologous recombination (Raymond, C. K. et al., Biotechniques 26: 134-138, 140-141, 1999). […] These mutants were then used as the template in the next round of library generation. The entire process, from library generation to isolation of improved mutants, was repeated three times to yield VL12.3. FACS sorting was performed using a Cytomation Moflo FACS machine by the staff of the MIT Flow cytometry core facility. All constructs and clones were sequenced at the MIT biopolymers lab.
Intrabody lacking disulflde bond engineered for high affinity by directed evolution. […]

[7] = biological target: httex1Q97-GFP, P42858; experiment: cell-based or functional assay
[8] = biological target: T1, peptide consisting of the first 20 …; experiment: antigen binding curves of yeast surface displayed VL mutants, flow cytometry; figure legend's estimate from FIG. 24B
Method: as §1, §2

B1: VL (anti-huntingtin single-domain antibody, variable light chain only), yeast-surface displayed (other)
VL: QPVLTQSPSVSAAPRQRVTISCSGSNSNIGSNTVNWFQQLPGRAPELLMYYDDLLAPGVSDRFSGSKSGTSASLAISGLQSEDEADYYCATWDDSLNGWVFGGGTKVTVLS
notes: Single human VL domain with its disulfide bond; also called SDAb; SDIb
B1 was tested. Which Kd [1] did it give?
Its Kd is ~30 nM.

What about the Kd [2] of the same binder?
The Kd was 30 to 50 nM.

B2: VL,C22V,C89A (disulfide-free VL), yeast-surface displayed (other)
VL: B1 VL with C22V, C89A
notes: also called disulfide-free antibody; disulfide knock-out
Which results are given for B2?
fold difference in affinity against VL [3]: ~1000 fold; Kd [1]: > 10000 nM; fold decrease in affinity against the SDAb with its disulfide bond [4]: ~100 fold

B3: engineered (affinity matured) disulfide-free SDIb of Examples 1 and 3 (other)
VL: SRPVLTQSPSVSAAPRQRVTISVSGSNSNIGSNTVNWIQQLPGRAPELLMYDDDLLAPGVSDRFSGSRSGTSASLTISGLQSEDEADYYAATWDDSLNDWVFGGGTKVTVLS
notes: expressed in yeast cytoplasm for the aggregation assay (construct not described); also called engineered SDIb
With B3 as the binder, how does the Kd [5] read?
Its Kd is ~10 nM.

B4: VL12.3 (other)
VL: MGSQPVLTQSPSVSAAPRQRVTISVSGSNSNIGSNTVNWIQQLPGRAPELLMYDDDLLAPGVSDRFSGSRSGTSASLTISGLQSEDEADYYAATWDDSLNGWVFGGGTKVTVLSGHHHHHH
notes: It carries N-terminal MGS and C-terminal GHHHHHH, which is the his6 intrabody form; also called engineered intrabody VL12.3; Ad-VL12.3 (adenovirus carrying the gene)
Which results are given for B4?
Kd [6]: ~5 nM; formation of aggregates in ST14A cells, 1:1 intrabody:htt plasmid ratio [7]: 80 % reduction; formation of aggregates in ST14A cells, higher intrabody:htt plasmid ratios [7]: > 90 % reduction; Kd [8]: ~3 nM
